Laboratory results reported in patent US20160272706A1.

How the values were obtained:
[1] = target: cynomolgus monkey FcRn (cynomolgus monkey) (UniProt Q8SPV9); experiment: SPR (BIAcore 3000), IgG immobilised on CM5, FcRn injected; binding at pH 7.4 as a percentage of that at pH 6
[2] = target: human FcRn protein (human) (UniProt P55899); experiment: as above
[3] = target: cynomolgus monkey FcRn (cynomolgus monkey) (UniProt Q8SPV9); experiment: SPR (BIAcore 3000), IgG immobilised on CM5, FcRn injected at pH 6, steady-state 1:1 fit
[4] = target: human FcRn protein (human) (UniProt P55899); experiment: as above

cynomolgus monkey FcRn (cynomolgus monkey), sequence (Q8SPV9 24-290 limits assumed, chain 1 of 2): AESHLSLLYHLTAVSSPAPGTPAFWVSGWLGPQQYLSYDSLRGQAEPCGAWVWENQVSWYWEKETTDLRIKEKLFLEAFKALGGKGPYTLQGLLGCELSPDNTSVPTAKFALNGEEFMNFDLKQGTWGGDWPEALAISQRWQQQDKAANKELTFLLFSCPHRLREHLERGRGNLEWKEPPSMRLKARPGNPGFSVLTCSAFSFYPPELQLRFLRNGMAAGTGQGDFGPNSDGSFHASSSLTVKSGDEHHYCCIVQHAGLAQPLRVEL
cynomolgus monkey FcRn (cynomolgus monkey), sequence (Q8SPW0 21-119 limits assumed, chain 2 of 2, further chain): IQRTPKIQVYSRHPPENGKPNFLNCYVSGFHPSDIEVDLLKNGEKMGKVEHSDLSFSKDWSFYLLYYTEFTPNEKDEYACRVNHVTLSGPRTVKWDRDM
human FcRn protein (human), sequence (P55899 24-290 limits assumed, chain 1 of 2): as the sequence (Q8SPV9 24-290 limits assumed, chain 1 of 2) above, with D39N, Q44E, S99G, G189S, N190S, M217L counted along it
human FcRn protein (human), sequence (P61769 21-119 limits assumed, chain 2 of 2, further chain): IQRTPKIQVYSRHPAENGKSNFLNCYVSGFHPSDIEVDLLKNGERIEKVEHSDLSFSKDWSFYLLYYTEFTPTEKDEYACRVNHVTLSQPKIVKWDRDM

## NIP228 (antibody)
[1]
  pH7.4/pH6: 1%
[2]
  pH7.4/pH6: 1%
[3]
  Kd: 1860 nM
[4]
  Kd: 2040 nM
